Here are results for one molecule from publication PMC13470446, “Microtubule-dependent regulation of chromatin dynamics by the Smc5/6 complex” (iScience, 2026).

The experiment addresses microtubule polymers (Polymerised alpha/beta-tubulin heterodimers (one repeat given). Source is not printed (assay 'as previously described' in a cited paper); commercial mammalian brain tubulin is assumed, porcine taken a). As to the kind of experiment: co-sedimentation; microtubule pelleting assay; fraction of microtubule-bound Smc5 plotted against microtubule concentration, Kd by curve fitting to a hyperbola; 3 independent experiments. Particulars: both partners purified.

Chain of microtubule polymers (Polymerised alpha/beta-tubulin heterodimers (one repeat given). Source is not printed (assay 'as previously described' in a cited paper); commercial mammalian brain tubulin is assumed, porcine taken a) (chain, as listed by the source, chain 1 of 2): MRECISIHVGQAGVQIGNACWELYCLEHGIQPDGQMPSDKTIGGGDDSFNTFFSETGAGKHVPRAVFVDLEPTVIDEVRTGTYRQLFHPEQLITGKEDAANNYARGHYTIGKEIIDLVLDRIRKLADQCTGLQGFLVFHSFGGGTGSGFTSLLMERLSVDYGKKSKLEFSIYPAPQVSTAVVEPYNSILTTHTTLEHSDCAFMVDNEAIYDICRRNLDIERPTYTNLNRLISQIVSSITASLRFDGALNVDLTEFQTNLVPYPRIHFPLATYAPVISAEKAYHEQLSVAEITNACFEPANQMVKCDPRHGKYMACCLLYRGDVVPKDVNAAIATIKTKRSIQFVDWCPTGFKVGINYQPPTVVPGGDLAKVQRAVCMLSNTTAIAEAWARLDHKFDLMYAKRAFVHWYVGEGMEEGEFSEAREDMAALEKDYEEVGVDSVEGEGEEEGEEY
Chain of microtubule polymers (Polymerised alpha/beta-tubulin heterodimers (one repeat given). Source is not printed (assay 'as previously described' in a cited paper); commercial mammalian brain tubulin is assumed, porcine taken a) (chain, as listed by the source, chain 2 of 2): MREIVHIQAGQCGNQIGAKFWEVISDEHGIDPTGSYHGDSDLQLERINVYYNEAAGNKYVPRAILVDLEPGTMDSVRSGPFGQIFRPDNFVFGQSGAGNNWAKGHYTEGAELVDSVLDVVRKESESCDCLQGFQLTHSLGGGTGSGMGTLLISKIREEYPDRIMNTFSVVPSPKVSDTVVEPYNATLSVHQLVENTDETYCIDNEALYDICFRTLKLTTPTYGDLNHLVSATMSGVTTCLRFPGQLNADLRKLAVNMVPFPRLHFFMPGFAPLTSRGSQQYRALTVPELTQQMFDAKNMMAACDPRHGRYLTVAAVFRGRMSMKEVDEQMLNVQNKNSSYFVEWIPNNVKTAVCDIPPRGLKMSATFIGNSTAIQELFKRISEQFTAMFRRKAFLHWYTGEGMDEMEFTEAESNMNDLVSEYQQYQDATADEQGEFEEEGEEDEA

B1: Smc5-2KE hinge domain (residues 215–885, K624E K631E) (domain or fragment, S. cerevisiae, UniProt Q08204 215-885, looked up)
chain: LRELQGNEQSLQKDLDFKKAKIVHLRQESDKLRKSVESLRDFQNKKGEIELHSQLLPYVKVKDHKEKLNIYKEEYERAKANLRAILKDKKPFANTKKTLENQVEELTEKCSLKTDEFLKAKEKINEIFEKLNTIRDEVIKKKNQNEYYRGRTKKLQATIISTKEDFLRSQEILAQTHLPEKSVFEDIDIKRKEIINKEGEIRDLISEIDAKANAINHEMRSIQRQAESKTKSLTTTDKIGILNQDQDLKEVRDAVLMVREHPEMKDKILEPPIMTVSAINAQFAAYLAQCVDYNTSKALTVVDSDSYKLFANPILDKFKVNLRELSSADTTPPVPAETVRDLGFEGYLSDFITGDKRVMKMLCQTSKIHTIPVSRRELTPAQIKKLITPRPNGKILFKRIIHGNRLVDIEQSAYGSEQVFPTDVSIKQTNFYQGSIMSNEQKIRIENEIINLKNEYNDRKSTLDALSNQKSGYRHELSELASKNDDINREAHQLNEIRKKYTMRKSTIETLREKLDQLKREARKDVSQKIKDIDDQIQQLLLKQRHLLSKMASSMKSLKNCQKELISTQILQFEAQNMDVSMNDVIGFFNEREADLKSQYEDKKKFVKEMRDTPEFQSWMREIRSYDQDTKEKLNKVAEKYEEEGNFNLSFVQDVLDKLESEIAMVNHDES
notes: Smc5, S. cerevisiae, hinge domain construct, residues 215-885, with K624E and K631E; source: purified
Turning to B1, the “fold reduction in binding affinity against wild-type Smc5” value was determined as 3 fold.
